Reference: patent publication US20210302442A1 (MAX DELBR CK CENTRUM F R MOLEKULARE MEDIZIN IN DER …, published 2021)

Molecular target: the molecule itself
Test: AFM of spontaneously formed aggregates (self-assembly)

B1: Ex1Q48 (other)
chain: MATLEKLMKAFESLKSFQQQQQQQQQQQQQQQQQQQQQQQQQQQQQQQQQQQQQQQQQQQQQQQQPPPPPPPPPPPQLPQPPPQAQPLLPQLQPPPPPPPPPPGPAAAEEPLHRP
notes: also called HTTEx1Q48; HTTex1Q48
  binding result: binds
